Measured values published in PMC6593972, “Two-Step Activation Mechanism of the ClpB Disaggregase for Sequential Substrate Threading by the Main ATPase Motor” (Cell Reports, 2019).

Target: the molecule itself
Test: cryo-EM structure; ClpB hexamer with a 20-fold molar excess of casein, 10 min at room temperature in 25 mM Tris-HCl pH 7.4, 25 mM KCl, 10 mM MgCl2, 2 mM ATPγS, 1 mM DTT; single-particle cryo-EM

B1: ClpB-DWB-K476C (natural protein)
chain: not shown
notes: ClpB, bacterial disaggregase, with K476C (M-domain) and the double Walker B mutations E279A/E678A; ATPase-deficient variant used to trap substrate for cryo-EM in the presence of ATPγS; also called ClpB-K476C-DWB; ClpB-K476C/E279A/E678A; source: E. coli ΔclpB::kan cells, purified (Ni-IDA, size exclusion chromatography Superdex S200)
stoichiometry N: 6
